The values below come from paper PMC4942575, “Plastid-nucleus communication involves calcium-modulated MAPK signalling” (Nature Communications, 2016).

One assay concerns the target T1, GST-MPK6 (Arabidopsis, UniProt Q39026 1-395).
T1 construct: MPK6, Arabidopsis, full length, in PGEX5X-1; also called GST-tagged MPK6
Put plainly: pull-down; GST or GST-MPK3/MPK6 immobilised on glutathione beads, 4 μg His-tagged ABI4, 4 °C for 4 h; washed with 50 mM Tris-HCl pH 7.4, 100 mM NaCl, 1 mM EDTA, 0.5% Nonidet P-40; anti-His immunoblot. To be noted: both partners purified.

In another assay the target is T2, GST-MPK3 (Arabidopsis, UniProt Q39023 1-370).
T2 construct: MPK3, Arabidopsis, full length, in PGEX5X-1; also called GST-tagged MPK3
T2 sequence (looked up): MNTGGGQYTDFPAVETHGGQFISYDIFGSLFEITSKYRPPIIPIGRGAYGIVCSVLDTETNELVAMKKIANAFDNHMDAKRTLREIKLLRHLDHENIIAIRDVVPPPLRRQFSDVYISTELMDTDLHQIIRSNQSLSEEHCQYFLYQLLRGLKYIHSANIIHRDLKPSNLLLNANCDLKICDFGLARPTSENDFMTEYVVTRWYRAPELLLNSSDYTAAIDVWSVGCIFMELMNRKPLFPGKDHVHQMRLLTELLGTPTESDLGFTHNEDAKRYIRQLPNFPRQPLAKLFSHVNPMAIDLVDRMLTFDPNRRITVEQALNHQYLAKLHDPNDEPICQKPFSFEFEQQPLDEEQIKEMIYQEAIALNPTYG
The assay is described as above. To be noted: both partners purified.

T1 sequence (Q39026 whole entry): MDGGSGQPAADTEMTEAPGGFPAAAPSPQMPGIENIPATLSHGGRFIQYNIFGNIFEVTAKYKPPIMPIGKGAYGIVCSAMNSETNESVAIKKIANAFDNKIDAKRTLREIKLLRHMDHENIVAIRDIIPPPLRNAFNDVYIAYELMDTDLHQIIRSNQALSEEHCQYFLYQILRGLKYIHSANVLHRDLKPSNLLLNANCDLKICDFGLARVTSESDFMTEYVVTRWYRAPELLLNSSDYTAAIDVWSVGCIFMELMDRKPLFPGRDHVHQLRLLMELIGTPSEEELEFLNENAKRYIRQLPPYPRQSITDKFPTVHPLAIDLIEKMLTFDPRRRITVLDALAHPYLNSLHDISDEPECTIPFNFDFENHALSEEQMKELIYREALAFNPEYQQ

B1: His-tagged ABI4 (natural protein)
chain: not shown
notes: ABI4, Arabidopsis; the ABI4 cDNA was inserted into the pCold vector; The pull-down methods name only 'recombinant His-tagged ABI4 protein'; also called recombinant ABI4
With B1, the binding result with GST-MPK6 and with GST-MPK3 was “binds” each time.
